Data: patent publication US20100203552

Key:
[1] = tested on: GST-Bim polypeptide [GST: P08515]
Target sequence in this assay (P08515 whole entry, looked up, the tested form may be a part): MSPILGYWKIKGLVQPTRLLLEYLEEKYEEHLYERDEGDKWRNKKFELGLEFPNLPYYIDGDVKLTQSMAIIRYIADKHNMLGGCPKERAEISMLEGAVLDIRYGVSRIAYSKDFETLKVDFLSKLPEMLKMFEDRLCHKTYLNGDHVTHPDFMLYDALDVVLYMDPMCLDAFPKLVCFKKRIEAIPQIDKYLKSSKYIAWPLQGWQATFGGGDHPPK

[2] = tested on: phosphorylated GST-Bim fusion protein [GST: P08515]
[3] = molecular target: GST-Bim polypeptide [GST: P08515]; remark: listed apart in the source
Target sequence in this assay (P08515 whole entry, looked up, the tested form may be a part): as above

Chain of phosphorylated GST-Bim fusion protein [GST: P08515] (P08515 whole entry, looked up, the tested form may be a part): as above

Molecule	Bim ubiquitination [1]	Bim ubiquitination [2]	Bim ubiquitination (anti-ubiquitin immunoblot of immunoprecipitated GST-Bim) [3]
Myc-tagged TRIM2 (myc-TRIM2)	Incubation of TRIM2 polypeptide with Bim resulted in low levels of Bim ubiquitination	addition of active MAPK to the reaction enhanced Bim ubiquitination	–
TRIM2 protein from rat brain lysate / rat cortical neuronal cell lysates (protein) MQRAGSRTAGPTCQWSRMASEGASIPSPVVRQIDKQFLICSICLERYKNPKVLPCLHTFCERCLQNYIPAHSLTLSCPVCRQTSILPEKGVAALQNNFFITNLMDVLQRTPGSNGEDPSILQTVTAVAAGKPLSCPNHDGNVMEFYCQSCETAMCRECTEGEHAEHPTVPLKDVVEQHKASLQVQLDAVNKRLPEIDSALQFISEIIHQLTNQKASIVDDIHSTFDELQKTLNVRKSVLLMELEVNYGLKHKVLQSQLDTLLQGQESIKSCSNFTAQALNHGTETEVLLVKKQMSEKLNELADQDFPLHPRENDQLDFIVETEGLKKSIHNLGTILTTNAVASETVATGEGLRQTIIGQPMSVTITTKDKDGELCKTGNAYLTAELSTPDGSVADGEILDNKNGTYEFLYTVQKEGDFTLSLRLYDQHIRGSPFKLKVIRSADVSPTTEGVKRRVKSPGSGHVKQKAVKRPASMYSTGKRKENPIEDDLIFRVGTKGRNKGEFTNLQGVAASTSGKILIADSNNQCVQIFSNDGQFKSRFGIRGRSPGQLQRPTGVAVHPSGDIIIADYDNKWVSIFSNDGKFKTKIGSGKLMGPKGVSVDRNGHIIVVDNKACCVFIFQPNGKIVTRFGSRGNGDRQFAGPHFAAVNSSNEIIITDFHNHSVKVFNQEGEFMLKFGSNGEGNGQFNAPTGVAVDSNGNIIVADWGNSRIQVFDGSGSFLSYINTSADPLYGPQGLALTSDGHVVVADSGNHCFKVYRYLQ	–	–	immunodepletion of TRIM2 protein reduces Bim ubiquitination in lysates from preconditioned cells to that of control lysates
